These results are taken from US20250222068A1, “COMPOSITION FOR PREVENTING OR TREATING LUPUS COMPRISING RECOMBINANT STABILIZED GALECTIN-9 PROTEIN” (GBIOLOGICS INC., priority 2022, published 2025).

Assay [1] deals with MRL/FAS^lpr mice. Put plainly: Clinical indicators (skin, lymphadenopathy, proteinuria scores) in an in vivo model of systemic lupus erythematosus. Particulars: 9 weeks; for reduction in skin lesions compared to positive control (Mycophenolate) / skin lesions (skin score) compared to negative control (Vehicle): FIG. 2; for inhibitory effect on lymphadenopathy compared to positive control (Mycophenolate) / lymphadenopathy score compared to negative control (Vehicle): FIG. 3; for proteinuria compared to negative control (Vehicle): FIG. 4. An excerpt:
Specifically, the occurrence and severity of lupus were regularly observed from group allocation to the end of the experiment in the experimental animals from <1-1> and evaluated according to the criteria shown in [Table 2].

In assay [2] the test system is MRL/FAS^lpr mice. Description: Spleen weight in an in vivo model of systemic lupus erythematosus. Particulars: sGal-9 2 mg/kg SC once per week, 9 weeks, FIG. 5. The source says:
Additionally, after the completion of the experiment, the experimental animals from <1-1> were sacrificed, and the spleens were extracted for weight measurement.

The test system of assay [3] is MRL/FAS^lpr mice. Put plainly: Histomorphological evaluation of renal tissue (H&E staining). The class given is in vivo. As to conditions: 9 weeks, FIG. 6; for inflammatory cell infiltration within the glomeruli: H&E. The source says: Specifically, after the completion of the experiment, the experimental animals of <1-1> were sacrificed, and renal tissues were collected. The collected renal tissues were fixed and dehydrated in 10% formaldehyde and subsequently embedded in paraffin. The fixed renal tissues were sectioned to a thickness of 2 μm and stained with hematoxylin and eosin (H&E). The sectioned tissues were covered with a coverslip and observed under an optical microscope at 400× magnification. Four regions were imaged for each tissue, and two or more researchers assigned scores based on the evaluation items and criteria for histomorphological assessment shown in [Table 3]. The average of the researchers' scores was determined as the scoring value, and the mean of the scoring values for the four regions was calculated as the final score for each tissue.

Assay [4] deals with MRL/FAS^lpr mice. Description: IgG immunofluorescence staining of renal tissue. The class given is in vivo. As to conditions: 9 weeks, FIG. 7. The protocol:
Additionally, the collected kidney tissues were frozen, sectioned at a thickness of 4 μm, and fixed in cold acetone for 5 minutes, followed by two washes with phosphate-buffered saline (PBS) for 5 minutes each. To eliminate non-specific reactions, blocking was performed for 30 minutes using a PBS solution containing 1% bovine serum albumin and 0.05% Tween-20. The sections were then incubated at room temperature for 1 hour with FITC-conjugated goat anti-mouse IgG antibody (1:200, AP308F, Merck Millipore). After three washes with PBS for 5 minutes each, nuclear staining was performed using DAPI, and the sections were covered with a cover glass using mounting medium. The samples were then examined using a confocal laser scanning microscope (C2 Plus, Nikon). […] Furthermore, it was confirmed that the glomerular lesion scores decreased in the positive control group (Mycophenolate) and the sGal-9 treatment groups (sGal-9 2 mg/kg and sGal-9 4 mg/kg) compared to the negative control group (Vehicle).

The subject of a further assay is anti-dsDNA antibodies. Description: Plasma anti-dsDNA antibody levels (ELISA) in an in vivo model of systemic lupus erythematosus. Particulars: 9 weeks, FIG. 8. Also noted: species or system mice. The protocol:
Anti-dsDNA antibodies are a type of antinuclear antibody (ANA) that target intracellular nuclear components and are present at high titers in systemic lupus erythematosus (SLE). These antibodies are associated with the persistent progression of kidney inflammation and damage.
Specifically, after the completion of the experiment, cardiac blood collection was performed on the experimental animals from <1-1>. The collected blood was allowed to coagulate for 30 minutes using a capillary blood collection tube (Cat. 365967, BD) and then centrifuged at 6,000×g for 10 minutes to obtain plasma. The obtained plasma was diluted at a ratio of 1:2,500, and the concentration of anti-dsDNA antibodies was measured using a Mouse Anti-dsDNA IgG Antibody ELISA Kit (Cat. 3031, Chondrex) according to the manufacturer's protocol.
(In general: In an ELISA, binding on a coated surface is turned into a signal by an enzyme label.)

Where [5] appears, read: sGal-9 2 mg/kg SC once per week.
The mark [6] stands for this setting: sGal-9 4 mg/kg SC once per week.

B1: sGal-9: recombinant stabilized galectin-9 protein of Sequence No. 1: linker entirely deleted, CCRD positions 1 to 10 deleted, alanine 13 substituted with proline (protein)
chain: MAFSGSQAPYLSPAVPFSGTIQGGLQDGLQITVNGTVLSSSGTRFAVNFQTGFSGNDIAFHFNPRFEDGGYVVCNTRQNGSWGPEERKTHMPFQKGMPFDLCFLVQSSDFKVMVNGILFVQYFHRVPFHRVDTISVNGSVQLSYISFQHPPYPMPFITTILGGLYPSKSILLSGTVLPSAQRFHINLCSGNHIAFHLNPRFDENAVVRNTQIDNSWGSEERSLPRKMPFVRGQSFSVWILCEAHCLKVAVDGQHLFEYYHRLRNLPTINRLEVGGDIQLTHVQT
modifications: sGal-9
As to B1, in the assay on MRL/FAS^lpr mice [1] (setting [5]), the “reduction in skin lesions compared to positive control (Mycophenolate)” value is recorded as “more pronounced”, the “skin lesions (skin score) compared to negative control (Vehicle)” value is given as “reduced”, the “inhibitory effect on lymphadenopathy compared to positive control (Mycophenolate)” value was “more pronounced” and the “lymphadenopathy score compared to negative control (Vehicle)” value is on record as “decreased”. For the same molecule, in the assay on MRL/FAS^lpr mice [1] (setting [5]), the “proteinuria compared to negative control (Vehicle)” value is “decreased”. Further, in the assay with MRL/FAS^lpr mice [1] (setting [6]), the “reduction in skin lesions compared to positive control (Mycophenolate)” value is given as “more pronounced”, the “skin lesions (skin score) compared to negative control (Vehicle)” value was “reduced”, the “inhibitory effect on lymphadenopathy compared to positive control (Mycophenolate)” value was “more pronounced” and the “lymphadenopathy score compared to negative control (Vehicle)” value is on record as “decreased”. Moreover, the “proteinuria compared to negative control (Vehicle)” value with MRL/FAS^lpr mice [1] (setting [6]) is listed as “decreased”. The “spleen weight compared to negative control (Vehicle)” value in the assay with MRL/FAS^lpr mice [2] was “decreased”. In the assay on MRL/FAS^lpr mice [3] (setting [5]), the “glomerular lesion scores compared to negative control (Vehicle)” value is “decreased” and the “inflammatory cell infiltration within the glomeruli” value is reported as “reduction”. In the assay on MRL/FAS^lpr mice [3] (setting [6]), the “glomerular lesion scores compared to negative control (Vehicle)” value is listed as “decreased” and the “inflammatory cell infiltration within the glomeruli” value was “reduction”. Further, in the assay on MRL/FAS^lpr mice [4] (setting [5]), the “IgG deposition in the kidney compared to negative control (Vehicle)” value is recorded as “decreased”. For the same molecule, the “IgG deposition in the kidney compared to negative control (Vehicle)” value in the assay with MRL/FAS^lpr mice [4] (setting [6]) was “decreased”. Besides, the “concentration of anti-dsDNA antibodies in plasma compared to negative control (Vehicle)” value in the assay with anti-dsDNA antibodies (setting [5]) is reported as “decreased”. In addition, in the assay on anti-dsDNA antibodies (setting [6]), the “concentration of anti-dsDNA antibodies in plasma compared to negative control (Vehicle)” value is given as “decreased” and the “reduction in anti-dsDNA antibody levels compared to positive control (Mycophenolate)” value is given as “superior reduction”.
